For assay [1], the target named is T1, human kallikrein 2 (hK2) (human, UniProt P20151 25-261). Nature of the assay: cell-based or functional assay.
The target in another assay is human kallikrein hK1 (human, UniProt P06870 25-262). As to the kind of experiment: cell-based or functional assay.
The target in assay [2] is T2, human chymotrypsin (Chtr) (human, UniProt P17538 19-263). As to the kind of experiment: cell-based or functional assay.
Assay [3] concerns the target T3, human plasma kallikrein (PK) (human, UniProt P03952 20-638). Nature of the assay: cell-based or functional assay.
In assay [4] the target is urokinase plasminogen activator (uPA) (UniProt P00749 21-431, limits assumed). As to the kind of experiment: cell-based or functional assay.
In assay [5] the target is T4, human neutrophil elastase (HNE) (human, UniProt P08246 30-247, limits assumed).
T4 sequence (looked up): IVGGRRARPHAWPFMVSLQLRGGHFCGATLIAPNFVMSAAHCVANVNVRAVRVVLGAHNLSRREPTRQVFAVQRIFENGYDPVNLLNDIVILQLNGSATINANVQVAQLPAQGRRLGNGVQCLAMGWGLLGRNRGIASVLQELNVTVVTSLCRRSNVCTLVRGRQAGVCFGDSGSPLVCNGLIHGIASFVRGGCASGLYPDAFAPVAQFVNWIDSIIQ
As to the kind of experiment: cell-based or functional assay.

In assay [6] the target is T1, human kallikrein 2 (hK2). Nature of the assay: progress curve, pseudo-first order, fluorogenic substrate.
Assay [7] concerns the target T2, human chymotrypsin (Chtr). Described as above.
The target of assay [8] is T3, human plasma kallikrein (PK). The assay is described as above.
In assay [9] the target is T4, human neutrophil elastase (HNE). Described as above.
In assay [10] the target is T1, human kallikrein 2 (hK2). As to the kind of experiment: residual enzyme activity against [I]o/[E]o, fluorogenic substrate.
Assay [11] has as its target T2, human chymotrypsin (Chtr). Described as above.
The target of assay [12] is T3, human plasma kallikrein (PK). The assay is described as above.
Assay [13] deals with T4, human neutrophil elastase (HNE). The assay is described as above.
In assay [14] the target is prostate specific antigen (PSA, hK3) (human, UniProt P07288 25-261). Nature of the assay: cell-based or functional assay.
The target of assay [15] is T3, human plasma kallikrein (PK). As to the kind of experiment: progress curve, ka with PK against ka with hK2. The method, then: Under these conditions, a fixed amount of enzyme (2 nM) was mixed with different concentrations of inhibitor (0-800 nM) and an excess of substrate (10 μM). Each reaction was made in reaction buffer (50 mM Tris pH 7.5, 150 mM NaCl, 0,05% Triton X-100, 0.01% BSA) at 25° C. for 45 min and the rate of product formation was measured using a FLₓ800 fluorescence 96-well microplate reader (Biotek, USA). In this model, inhibition is considered to be irreversible over the course of reaction and the progress of enzyme activity is expressed by product formation (P), beginning at a rate (vz) and is inhibited over time (t) at a first-order rate (kobs), rate constant that is dependent only on inhibitor concentration.
The rate of inhibitory reaction with variant ACTs was determined for each protease showing reactivity with these inhibitors. To that end, interaction of hK2 and recombinant serpins was measured under pseudo-first order conditions using progress curve method. hK2 (2 nM) and substrate Z-FR-AMC […] were added to varying amounts (20 n-800 nM) of inhibitors rACT_{8.20}, rACT_{5.18} and inhibitors rACT_{6.2}, rACT_{8.3}, rACT_{6.7}, rACT_{6.1} (data not shown). […] After determination of kobs, association constants (ka) were calculated using Kₘ of the proteases for their corresponding substrates (table VI). […]

Positions count from the first letter of the chain named.

T2 sequence (P17538 19-263): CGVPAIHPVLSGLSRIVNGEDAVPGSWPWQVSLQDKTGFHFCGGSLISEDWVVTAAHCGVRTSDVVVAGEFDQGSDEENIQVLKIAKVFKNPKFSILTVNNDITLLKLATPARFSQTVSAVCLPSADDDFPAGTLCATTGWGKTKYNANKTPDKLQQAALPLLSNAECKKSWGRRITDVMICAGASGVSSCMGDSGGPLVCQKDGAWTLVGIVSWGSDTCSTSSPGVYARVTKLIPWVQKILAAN
T3 sequence (P03952 20-638 limits assumed): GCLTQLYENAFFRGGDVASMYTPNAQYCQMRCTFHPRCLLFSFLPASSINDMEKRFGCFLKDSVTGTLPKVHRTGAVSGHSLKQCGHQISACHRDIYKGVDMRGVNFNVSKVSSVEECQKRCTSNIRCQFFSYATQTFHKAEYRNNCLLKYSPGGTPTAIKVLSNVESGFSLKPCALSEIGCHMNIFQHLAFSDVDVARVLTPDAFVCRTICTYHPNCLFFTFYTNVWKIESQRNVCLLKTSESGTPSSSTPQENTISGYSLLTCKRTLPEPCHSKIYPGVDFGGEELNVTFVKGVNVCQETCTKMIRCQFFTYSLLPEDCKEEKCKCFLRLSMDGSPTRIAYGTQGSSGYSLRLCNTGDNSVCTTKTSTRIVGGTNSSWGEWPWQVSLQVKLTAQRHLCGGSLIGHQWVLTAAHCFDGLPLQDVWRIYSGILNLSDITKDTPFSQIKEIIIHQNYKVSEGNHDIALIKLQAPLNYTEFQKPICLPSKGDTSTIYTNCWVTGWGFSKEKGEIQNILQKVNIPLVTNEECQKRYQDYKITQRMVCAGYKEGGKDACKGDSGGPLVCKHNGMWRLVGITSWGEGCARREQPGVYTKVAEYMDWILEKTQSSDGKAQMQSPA

B1: rACT8.20 (other)
chain: MRGSHHHHHHSRHPNSPLDEENLTQENQDRGTHVDLGLASANVDFAFSLYKQLVLKAPDKNVIFSPLSISTALAFLSLGAHNTTLTEILKGLKFNLTETSEAEIHQSFQHLLRTLNQSSDELQLSMGNAMFVKEQLSLLDRFTEDAKRLYGSEAFATDFQDSAAAKKLINDYVKNGTRGKITDLIKDLDSQTMMVLVNYIFFKAKWEMPFDPQDTHQSRFYLSKKKWVMVPMMSLHHLTIPYFRDEELSCTVVELKYTGNASALFILPDQDKMEEVEAMLLPETLKRWRDSLEFREIGELYLPKFSISRDYNLNDILLQLGIEEAFTSKADLSGITGARNLAVSQVVHKAVLDVFEEGTEASAATAVKITLRSRAVETRTIVRFNRPFLMIIVPTDTQNIFFMSKVTNPKQA
notes: recombinant alpha-1-antichymotrypsin (serpin) variant, RSL substrate peptide LRSRA; N-terminal His tag, E. coli TG1; also called MD820; MD 820
Take B1: the INHIBITION % is 95% with human kallikrein 2 (hK2) [1]; 0% with human kallikrein hK1; 66% in assay [2]; 54% in assay [3]; 0% in [4]; 30% in assay [5]. Moreover, the on-rate (kon) – broadly, the rate constant with which the complex forms – with human kallikrein 2 (hK2) [6] stood at 1780 M⁻¹ s⁻¹; in [7], 905 M⁻¹ s⁻¹; in assay [8] it was 424 M⁻¹ s⁻¹; in assay [9], 158 M⁻¹ s⁻¹. Also, the “SI (stoichiometry of inhibition)” value with human kallikrein 2 (hK2) [10] came out at 105; in assay [11], 134; in assay [12], 150; in [13], 334.

B2: rACT6.7 (other)
chain: B1 chain with T370K, S373T, R374T, A375L
notes: recombinant ACT variant, RSL substrate peptide KLRTT; N-terminal His tag, E. coli TG1; also called MD67; MD 67
On to B2, for which the INHIBITION % with human kallikrein 2 (hK2) [1] was determined as 100%; in [14] it was 0%; in the assay with human kallikrein hK1 it was 0%; in assay [3], 36%; in [4], 0%. Further, in assay [15], the “fold lower ka than with hK2” value was 45 fold. Besides, the association rate constant (kon) was 8990 M⁻¹ s⁻¹ with human kallikrein 2 (hK2) [6] and 201 M⁻¹ s⁻¹ in assay [8]. In addition, the “SI (stoichiometry of inhibition)” value in the assay with human kallikrein 2 (hK2) [10] was found to be 9; in assay [12], 277.
